Source: the RNAGym collection of RNA variant scans (doi:10.1093/molbev/msab373)

B1: Azoarcus group I ribozyme (parent)
chain: GUGCCUUGCGCCGGGAAACCACGCAAGGGAUGGUGUCAAAUUCGGCGAAACCUAAGCGCCCGCCCGGGCGUAUGGCAACGCCGAGCCAAGCUUCGGCGCCUGCGCCGAUGAAGGUGUAGAGACUAGACGGCACCCACCUAAGGCAAACGCUAUGGUGAAGGCAUAGUCCAGGGAGUGGCGAAAGUCACACAAACCGG

Variants of: B1
Assay: reverse-splicing fitness (ratio to wild type); higher = more active; in vitro selection; Mg2+ level not given
How it was run: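 An in vitro group I ribozyme library with randomized positions was T7-transcribed and gel-purified. In triplicate, 10 pmol RNA in EPPS pH 7.5 was reacted with 50 pmoles of a 30-nt RNA substrate for 1 h at 37 °C across several added MgCl2 levels (1–48 mM), then stopped with EDTA. Products were reverse transcribed from a substrate-complementary primer, PCR-amplified and sequenced (HiSeq 4000). Fitness is a variant's read proportion after selection over that before, normalised to wild type.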

Going from C82A A111C A145G C150U U176G to C82A A111C A145G C150U U176A, the reverse-splicing fitness rises from 0.0141 to 0.0494.

First: C82A A111C A145G C169A U176G
Second: C82A A111C A145G C169A U176A
The reverse-splicing fitness of the first is lower: 0.0069 for the first, 0.0211 for the second.

Going from C82A A111C A145G C169A U176C to C82A A111C A145G C150A C169U U176C, the reverse-splicing fitness falls from 0.029 to 0.0158.

Going from C82A A111C A145G C150A C169U U176G to C82A A111C A145G C150A C169U U176A, the reverse-splicing fitness rises from 0.00882 to 0.0149.

Going from C82A A111C A120U A145U C169G U176G to C82A A111C A120U A145U C169G U176A, the reverse-splicing fitness rises from 0.00259 to 0.00336.

Compared with C82A A111C A120U A145U C169G U176C, C82A A111C C150A C169U U176C is higher in reverse-splicing fitness: 0.00308 for the first, 0.0182 for the second.

Going from C82A A111C C150A C169U U176G to C82A A111C C150A C169U U176A, the reverse-splicing fitness rises from 0.0104 to 0.0161.

Compared with C82A A111C A145G C150A C169A, C82A A111C A145G C150A C169U is higher in reverse-splicing fitness: 0.011 for the first, 0.0111 for the second.

First: C82A A111C A145G C150A C169G
Second: C82A A111C A145G C150A C169G U176C
The reverse-splicing fitness of the first is lower: 0.00824 for the first, 0.0253 for the second.

Going from C82A A111C A145G C150A C169G U176G to C82A A111C A145G C150A C169G U176A, the reverse-splicing fitness rises from 0.0087 to 0.0152.

Going from C82A A111C C150A C169G U176A to C82A A111C C150A C169G U176G, the reverse-splicing fitness falls from 0.0151 to 0.00951.

Going from C82A A111C C150A C169G U176C to C82A A111C A145G C150G C169G U176A, the reverse-splicing fitness falls from 0.0222 to 0.00988.

Compared with C82A A111C A145G C150G C169G U176G, C82A A111C A145G C150G C169G U176C is higher in reverse-splicing fitness: 0.00568 for the first, 0.0128 for the second.

Compared with C82A A111C A145U C150U, C82A A111C A145U C150G is lower in reverse-splicing fitness: 0.135 for the first, 0.0181 for the second.

Going from C82A A111C A145U C150A to C82A A111C A145U C150G C169A U176G, the reverse-splicing fitness falls from 0.0227 to 0.00861.

First: C82A A111C A145U C150G C169A U176A
Second: C82A A111C A145U C150G C169A U176C
The reverse-splicing fitness of the first is lower: 0.0098 for the first, 0.0117 for the second.

Going from C82A A111C A120U A145U C150G C169G U176G to C82A A111C A120U A145U C150U C169A, the reverse-splicing fitness rises from 0.00306 to 0.00321.

First: C82A A111C A120U A145U C150U C169U
Second: C82A A111C A120U A145U C150U C169G
The reverse-splicing fitness of the first is lower: 0.00409 for the first, 0.00466 for the second.

Going from C82A A111C A120U C150U C169G U176G to C82A A111C A120U C150U C169G U176C, the reverse-splicing fitness rises from 0.00288 to 0.00483.

Compared with C82A A111C A120U C150U C169G U176A, C82A A111C C150G U176C is higher in reverse-splicing fitness: 0.00669 for the first, 0.0124 for the second.

Going from C82A A111C C150G U176G to C82A A111C C150G U176A, the reverse-splicing fitness rises from 0.00364 to 0.0084.

Compared with C82A A111C A145U C150U C169U U176C, C82A A111C A145U C150U C169U U176A is higher in reverse-splicing fitness: 0.0144 for the first, 0.0172 for the second.

Compared with C82A A111C A145U C150U C169U U176G, C82A A111C A145U C169U U176C is higher in reverse-splicing fitness: 0.00857 for the first, 0.0144 for the second.

Compared with C82A A111C A145U C169U U176G, C82A A111C A145U C169U U176A is higher in reverse-splicing fitness: 0.00718 for the first, 0.0149 for the second.

Compared with C82A A111C A145U C150A C169U U176G, C82A A111C A145U C150A C169U U176A is higher in reverse-splicing fitness: 0.00853 for the first, 0.0155 for the second.

Going from C82A A111C A145U C150A C169U U176C to C82A A111C A145C C150U U176G, the reverse-splicing fitness falls from 0.0167 to 0.00993.

Going from C82A A111C A145C C150U U176C to C82A A111C A145C C150U U176A, the reverse-splicing fitness falls from 0.0355 to 0.0236.

First: C82A A111C A120U C150G C169A U176A
Second: C82A A111C A120U C150G C169A U176C
The reverse-splicing fitness of the first is lower: 0.00579 for the first, 0.00597 for the second.

First: C82A A111C A120U C150G C169A U176G
Second: C82A A111C A145G C150U C169A U176A
The reverse-splicing fitness of the first is lower: 0.00319 for the first, 0.0141 for the second.

Compared with C82A A111C A145G C150U C169A U176G, C82A A111C A145G C150U C169A U176C is higher in reverse-splicing fitness: 0.00833 for the first, 0.0148 for the second.

Going from C82A A111C A120U C150U C169U U176A to C82A A111C A120U C150U C169U U176G, the reverse-splicing fitness falls from 0.00738 to 0.0027.

Compared with C82A A111C A120U C150U C169U U176C, C82A A111C A145C C169A is higher in reverse-splicing fitness: 0.00534 for the first, 0.00711 for the second.

Compared with C82A A111C A145C C169G, C82A A111C A145C C169U is higher in reverse-splicing fitness: 0.00923 for the first, 0.0124 for the second.

Going from C82A A111C A145G C169U U176C to C82A A111C A145G C169U U176G, the reverse-splicing fitness falls from 0.0149 to 0.0073.

Compared with C82A A111C A145G C169U U176A, C82A A111C A145U C150A C169G U176G is lower in reverse-splicing fitness: 0.0177 for the first, 0.0087 for the second.

Going from C82A A111C A145U C150A C169G U176C to C82A A111C A145U C150A C169G U176A, the reverse-splicing fitness falls from 0.022 to 0.014.

Going from C82A A111C A145G C150G C169A U176C to C82A A111C A145G C150G C169A U176G, the reverse-splicing fitness falls from 0.0134 to 0.00877.

Going from C82A A111C A145G C150G C169A U176A to C82A A111C C150G C169G U176C, the reverse-splicing fitness falls from 0.0119 to 0.00508.

Going from C82A A111C C150G C169G U176A to C82A A111C C150G C169G U176G, the reverse-splicing fitness falls from 0.00718 to 0.00585.

First: C82A A111C A145C C150A U176A
Second: C82A A111C A145C C150A U176C
The reverse-splicing fitness of the first is lower: 0.0105 for the first, 0.0176 for the second.

Going from C82A A111C A145C C150A U176G to C82A A111C A145C C150A C169G U176A, the reverse-splicing fitness rises from 0.00856 to 0.0264.

First: C82A A111C A145C C150A C169G U176G
Second: C82A A111C A145C C150A C169G U176C
The reverse-splicing fitness of the first is lower: 0.00943 for the first, 0.0219 for the second.
